First the molecules themselves.
B1: FC5 VHH (parental camelid single domain antibody) (VHH)
VHH: DVQLQASGGGLVQAGGSLRLSCAASGFKITHYTMGWFRQAPGKEREFVSRITWGGDNTFYSNSVKGRFTISRDNAKNTVYLQMNSLKPEDTADYYCAAGSTSTATPLRVDYWGKGTQVTVSS
notes: Llama-derived VHH expressed in E. coli in fusion with His5 and c-myc tags; also called FC5 camelid; sdAb FC5; not shown: His5 and c-myc tags
B2: FC5-H7 (VHH)
VHH: EVQLVESGGGLVQPGGSLRLSCAASGFKITHYTMGWFRQAPGKEREFVSRITWGGDNTFYSNSVKGRFTISRDNSKNTLYLQMNSLRAEDTAVYYCAAGSTSTATPLRVDYWGQGTLVTVSS
notes: Humanized variant of FC5, expressed with His5 and c-myc tags; not shown: His5 and c-myc tags
B3: FC5-H3 (VHH)
VHH: B2 VHH with E44G, R45L, L79V
notes: as for B2
B4: FC5-H1 (VHH)
VHH: B2 VHH with F37V, E44G, R45L, F47W
notes: as for B2
B5: FC5-H2 (VHH)
VHH: B2 VHH with F37V, E44G, R45L, F47W, L79V
notes: as for B2

Substitutions are numbered along the chain they refer to.

One experiment has as its target receptor(s) of FC5 on SV-ARBEC cells (SV40-immortalized adult rat brain microvascular endothelial cells) (rat) (UniProt Q6AY41). In words: Mirrorball microplate cytometry on SV-ARBEC cells in suspension, anti-c-myc Alexa 488 detection.
In turn, B1 returned an SV-ARBEC binding (MMFI at 1.3 µM antibody) of 20.3 MMFI.
For the molecule B2, the SV-ARBEC binding (MMFI at 1.3 µM antibody) stood at 64.2 MMFI.
On the same count and under the same terms, to B3 belongs 40.2 MMFI; to B4, 27 MMFI.
Same read-out and setting: in the case of B5 it was 23.1 MMFI.

A further experiment addresses T1, receptor(s) of FC5 on HBEC-D3 cells (human microvascular brain endothelial cells) (human, UniProt Q9NV96 2-361).
T1 construct: whole, on cells; The assay used whole, untransfected endothelial cells; also called human brain endothelial cells; TMEM30A
T1 sequence (looked up): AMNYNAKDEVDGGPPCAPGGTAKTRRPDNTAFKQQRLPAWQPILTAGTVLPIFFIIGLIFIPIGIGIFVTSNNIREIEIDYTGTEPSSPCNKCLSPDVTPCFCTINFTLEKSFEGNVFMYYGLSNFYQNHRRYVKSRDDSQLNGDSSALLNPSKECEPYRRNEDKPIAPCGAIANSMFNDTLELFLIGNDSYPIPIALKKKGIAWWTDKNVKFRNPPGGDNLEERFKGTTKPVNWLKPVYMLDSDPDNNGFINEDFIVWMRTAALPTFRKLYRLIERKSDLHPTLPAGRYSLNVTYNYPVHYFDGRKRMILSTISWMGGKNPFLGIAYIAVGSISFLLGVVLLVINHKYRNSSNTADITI
In words: Mirrorball microplate cytometry on HBEC-D3 cells in suspension, anti-c-myc Alexa 488 detection. As to the method:
Mirrorball 6 High Sensitivity Microplate Cytometry (TTP Labtech): All buffers and reagents were pre-chilled to 4° C. […] mM EDTA and Mirrorball assay buffer—Live Cell Imaging Solution, LCIB (Invitrogen, 140 mM NaCl, 2.5 mM KCl, 1.8 mM CaCl₂, 1.0 mM MgCl₂, 20 mM Hepes, pH 7.4, mOsm=300). A 20 μl volume of a 1:1 mix of LCIB and 0.5×PBS/2.5 mM EDTA was added to all wells of each 384 well Mirrorball assay plate (Corning 3712); with the exception of row A which received 40 μl of 1000 nM test VHH antibody. Serial dilutions were prepared for each test variant within the Mirrorball 384 well assay plate. A 16-channel Finn pipette (Thermo Scientific) was used to transfer 20 μl of VHH antibody from row A-columns 1-24 into row B-columns 1-24 mixing 8×, then transferring 20 μl of VHH antibody from row B-columns 1-24 into row C-columns 1-24 mixing 8×. Dilutions were repeated until row G-columns 1-24 to create 7 point curve for each VHH antibody variant. A second set of test VHH antibody variants (1000 nM) were added to row I-columns 1-24 and the dilution protocol was repeated until row 0-columns 1-24. Row H-columns 1-24 were reserved on each plate for the reference FC5-H7 VHH single domain antibody. Row P-columns 1-24 received no antibody; this was background control for non-specific binding of the secondary to the cells of interest; thus 48 variants could be tested on each 384 well Mirrorball assay plate. Immortalized adult rat brain microvascular endothelial cells (SV-ARBEC) and/or human microvascular brain endothelial cells (HBEC-D3) were dissociated in Accutase solution (Sigma Aldrich) to generate single cell populations. Cells were washed in LCIB then centrifuged at 200×g, 5 min to pellet. Wash buffer was removed and the cell pellet was re-suspended into 1 mL of LCIB. Cell number was calculated using a Bio-Rad TC20 automated cell counter with Trypan Blue dye to assess viability. The cells were diluted to 350,000 live cells/ml using LCIB. A fluorescent conjugate c-myc Alexa 488 detection antibody (1600 ng/ml, Santa Cruz Biotechnology) supplemented with Draq 5 nuclear stain (2 uM, Cell Signaling) was prepared in LCIB assay buffer.
For B1, the “HBEC-D3 binding (MMFI at 1.3 µM antibody)” value was 39.1 MMFI.
Turning to B2, the “HBEC-D3 binding (MMFI at 1.3 µM antibody)” value was 72.8 MMFI.
Same read-out and setting: to B3 belongs 43.9 MMFI; to B4, 66.4 MMFI; to B5, 31 MMFI.

Source of the values: patent publication US20190241653A1 (NATIONAL RESEARCH COUNCIL OF CANADA, published 2019).
